The text below walks through data of the supplement of paper PMC7877785.

This data set in a line: self-splicing fitness, log relative to wild type (ln ratio); higher = more splicing; Tetrahymena group I intron in knt gene, E. coli kanamycin selection, DiMSum; sequences stand for … in CUCUCU…GGAGGGAAAAGUUAUCAGGCAUGCACCUGGUAGCUAGUCUUUAAACCAAUAGAUUGCAUCGGUUUAAAAGGCAAGACCGUCAAAUUGCGGGAAAGGGGUCAACAGCCGUUCAGUACCAAGUCUCAGGGGAAACUUUGAGAUGGCCUUGCAAAGGGUAUGGUAAUAAGCUGACGGACAUGGUCCUAACCACGCAGCCAAGUCCUAAGUCAACAGAUCUUCUGUUGAUAUGGAUGCAGUUCACAGACUAAAUGUCGGUCGGGGAAGAUGUAUUCUUCUCAUAAGAUAUAGUCGGACCUCUCCUUAAUGGGAGCUAGCGGAUGAAGUGAUGCAACACUGGAGCCGCUGGGAACUAAUUUGUAUGCGAAAGUAUAUUGAUUAGUUUUGGAGUACUCGUGGUCG
Summed up:
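Colonies from six replicate transformations of E. coli BL21(DE3) were pooled and amplicon-sequenced on an Illumina HiSeq 2500. The library placed an intron with all eight P1ex-region nucleotides randomised inside the knt kanamycin-resistance gene on pET-22b(+), and cells grew overnight at 37°C or 30°C on LB agar with or without 25 μg/mL kanamycin (plus 100 μg/mL carbenicillin, 50 μM IPTG, 0.2% rhamnose). Fitness is the DiMSum error-weighted combination of wild-type-normalised replicate fold changes, kanamycin versus none.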

± gives the uncertainty stated by the source.

Take GGCCAGCAAUAUUACGGAUU: the “self-splicing fitness (ln)” value reads like this: (30 °C) -0.639 ± 0.056; (37 °C) -0.524 ± 0.063.

On to CCUUAGCAAUAUUACGCGUC, for which the “self-splicing fitness (ln)” value is -4.42 ± 0.39 (30 °C) and -2.91 ± 0.31 (37 °C).

Turning to UAGUAGCAAUAUUACGUGUU, the “self-splicing fitness (ln)” value runs as follows: (30 °C) -3.65 ± 0.21; (37 °C) -1.95 ± 0.15.

For the sequence AAGAAGCAAUAUUACGCCUA, the “self-splicing fitness (ln)” value by setting is: (30 °C) -0.339 ± 0.12; (37 °C) -0.209 ± 0.13.

UGUGAGCAAUAUUACGCACC: the “self-splicing fitness (ln)” value was -1.27 ± 0.21 (30 °C) and -1.14 ± 0.22 (37 °C).

As to CGCCAGCAAUAUUACGCAGC, the “self-splicing fitness (ln)” value is, setting by setting: (30 °C) -2.96 ± 0.34; (37 °C) -2.4 ± 0.38.

For the sequence AUGUAGCAAUAUUACGUGAU, the “self-splicing fitness (ln)” value is -1.52 ± 0.082 (30 °C) and -0.75 ± 0.11 (37 °C).

As to CCGCAGCAAUAUUACGAAGC, the “self-splicing fitness (ln)” value (30 °C) is -3.14 ± 0.22 and the “self-splicing fitness (ln)” value (37 °C) was -3.36 ± 0.25.

UUGAAGCAAUAUUACGCGCA: the “self-splicing fitness (ln)” value worked out at 0.548 ± 0.12 (30 °C) and 0.381 ± 0.12 (37 °C).

As to CAUCAGCAAUAUUACGGGAG, the “self-splicing fitness (ln)” value by setting is: (30 °C) -0.766 ± 0.054; (37 °C) -0.2 ± 0.075.

With CCGAAGCAAUAUUACGAGGC, the “self-splicing fitness (ln)” value is -4.67 ± 0.42 (30 °C) and -3.39 ± 0.29 (37 °C).

With UUAAAGCAAUAUUACGGACU, the “self-splicing fitness (ln)” value (30 °C) is -0.204 ± 0.096 and the “self-splicing fitness (ln)” value (37 °C) is -0.0989 ± 0.11.

On to GGCCAGCAAUAUUACGACCU, for which the “self-splicing fitness (ln)” value (30 °C) is -1.96 ± 0.19 and the “self-splicing fitness (ln)” value (37 °C) is -0.345 ± 0.22.

With GUAGAGCAAUAUUACGAUUC, the “self-splicing fitness (ln)” value is -0.192 ± 0.1 (30 °C) and 0.716 ± 0.14 (37 °C).

On to UGUAAGCAAUAUUACGAGUC, for which the “self-splicing fitness (ln)” value (37 °C) is -2.47 ± 0.33.

Regarding AAGGAGCAAUAUUACGGAUC, the “self-splicing fitness (ln)” value (30 °C) is -2.64 ± 0.36.

As for GUCGAGCAAUAUUACGGCUG, the “self-splicing fitness (ln)” value by setting is: (30 °C) -2.54 ± 0.25; (37 °C) -1.7 ± 0.39.

Consider GCGAAGCAAUAUUACGUCAA, for which the “self-splicing fitness (ln)” value is, setting by setting: (30 °C) -3.02 ± 0.19; (37 °C) -2.05 ± 0.15.

Turning to CUCUAGCAAUAUUACGAGUU, the “self-splicing fitness (ln)” value is, setting by setting: (30 °C) -3.44 ± 0.38; (37 °C) -3.55 ± 0.42.

For the sequence AUGCAGCAAUAUUACGUAUG, the “self-splicing fitness (ln)” value (30 °C) is -3.15 ± 0.16 and the “self-splicing fitness (ln)” value (37 °C) is -1.09 ± 0.16.

In the case of AACUAGCAAUAUUACGUUAC, the “self-splicing fitness (ln)” value (30 °C) was -1.79 ± 0.13 and the “self-splicing fitness (ln)” value (37 °C) is -1.96 ± 0.2.

Turning to UCCGAGCAAUAUUACGUCCG, the “self-splicing fitness (ln)” value (30 °C) was -2.24 ± 0.24.

GAGCAGCAAUAUUACGAUUA: the “self-splicing fitness (ln)” value was -2.26 ± 0.15 (30 °C) and -1.13 ± 0.12 (37 °C).

For the sequence GAGAAGCAAUAUUACGUGUG, the “self-splicing fitness (ln)” value by setting is: (30 °C) -2.18 ± 0.12; (37 °C) -1.96 ± 0.15.

With CCAUAGCAAUAUUACGUCAC, where the note is “30 °C”, the “self-splicing fitness (ln)” value is -3.48 ± 0.28.

On to GCGAAGCAAUAUUACGACAG, for which the “self-splicing fitness (ln)” value (30 °C) is -3.79 ± 0.16 and the “self-splicing fitness (ln)” value (37 °C) is -1.97 ± 0.21.

UACAAGCAAUAUUACGACAC: the “self-splicing fitness (ln)” value runs as follows: (30 °C) -3.15 ± 0.18; (37 °C) -1.38 ± 0.15.

With CGACAGCAAUAUUACGUAAU, the “self-splicing fitness (ln)” value is -3.73 ± 0.16 (30 °C) and -2.34 ± 0.15 (37 °C).

UCCUAGCAAUAUUACGGGGG: the “self-splicing fitness (ln)” value (30 °C) is -3.69 ± 0.18 and the “self-splicing fitness (ln)” value (37 °C) was -2.59 ± 0.27.

Turning to CGUUAGCAAUAUUACGUACC, the “self-splicing fitness (ln)” value reads like this: (30 °C) -1.39 ± 0.15; (37 °C) -1.09 ± 0.18.

With AUCCAGCAAUAUUACGCGUC, the “self-splicing fitness (ln)” value by setting is: (30 °C) -3.24 ± 0.12; (37 °C) -1.3 ± 0.13.

In the case of CGUUAGCAAUAUUACGUGUA, the “self-splicing fitness (ln)” value is -3.37 ± 0.25 (30 °C) and -3.03 ± 0.34 (37 °C).

Take CGUGAGCAAUAUUACGGUAG: the “self-splicing fitness (ln)” value reads like this: (30 °C) -1.84 ± 0.11; (37 °C) -1.11 ± 0.11.

For GAAGAGCAAUAUUACGGCUA, the “self-splicing fitness (ln)” value runs as follows: (30 °C) -1.5 ± 0.15; (37 °C) -0.512 ± 0.15.

For the sequence GGAAAGCAAUAUUACGGCUU, the “self-splicing fitness (ln)” value (30 °C) is -1.08 ± 0.091 and the “self-splicing fitness (ln)” value (37 °C) is -0.393 ± 0.14.

Regarding GUCAAGCAAUAUUACGGAUG, the “self-splicing fitness (ln)” value by setting is: (30 °C) -2.64 ± 0.12; (37 °C) -0.795 ± 0.11.

For AACCAGCAAUAUUACGUGUC, the “self-splicing fitness (ln)” value is -3.29 ± 0.094 (30 °C) and -1.42 ± 0.075 (37 °C).

With GCUUAGCAAUAUUACGCUUA, the “self-splicing fitness (ln)” value was -0.849 ± 0.11 (30 °C) and -0.925 ± 0.14 (37 °C).

CAAGAGCAAUAUUACGUGUG: the “self-splicing fitness (ln)” value runs as follows: (30 °C) -2.56 ± 0.1; (37 °C) -1.5 ± 0.092.
